This is an account of results in article PMC4719083, “Myosin IXa Binds AMPAR and Regulates Synaptic Structure, LTP, and Cognitive Function” (Frontiers in Molecular Neuroscience, 2016).

In the experiment the target is T1, GST C-terminal (Myo9a amino acids 2330-2626 fused to GST) (rat, UniProt Q9Z1N3 2330-2626).
T1 construct: Myosin IXa (Myo9a), rat, NCBI AJ001713, amino acids 2330-2626 (C-terminus); Cloned into pGEX-4T1; also called Myo9a GST C-term; Myo9a C-terminus; source: E. coli BL21, purified, immobilized on glutathione-Sepharose 4B beads
T1 sequence (looked up): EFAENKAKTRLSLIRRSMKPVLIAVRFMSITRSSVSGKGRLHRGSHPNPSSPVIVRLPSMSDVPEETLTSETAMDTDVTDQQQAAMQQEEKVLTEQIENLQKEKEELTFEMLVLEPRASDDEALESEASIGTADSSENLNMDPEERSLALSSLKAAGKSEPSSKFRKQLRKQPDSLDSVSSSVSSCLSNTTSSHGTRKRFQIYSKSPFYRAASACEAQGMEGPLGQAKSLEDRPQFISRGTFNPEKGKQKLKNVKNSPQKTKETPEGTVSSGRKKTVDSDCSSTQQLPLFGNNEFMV
In words: pull-down; purified GluA2 C-term (released from GST by thrombin, in PBS) incubated with glutathione Sepharose 4B-coupled GST or GST C-term from Myo9a; immunoblot. To be noted: both partners purified. Background: Immunoblotting shows a protein as a band on a membrane.

B1: GluA2 C-term (GluA2 intracellular C-terminal tail, amino acids 834-883, released from GST by thrombin) (domain or fragment, rat, UniProt P19491 834-883, looked up)
chain: EFCYKSRAEAKRMKVAKNPQNINPSSSQNSQNFATYKEGYNVYGIESVKI
notes: AMPA receptor subunit GluA2, rat, NCBI M85035, intracellular C-terminal tail, amino acids 834-883; Cloned into pGEX-4T1; also called purified GluA2 C-terminus; GluA2 C-terminal tail; source: E. coli BL21, purified with glutathione-Sepharose 4B resin, released by thrombin
Regarding B1, the binding result was “binds”.
